# ± gives the uncertainty stated by the source.
# Test: amyloid nucleation score (Sup35N fusion, yeast selection) (log enrichment); library NNK1; higher = more nucleation; inactive = no reads after selection
# Procedure, shortened: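 Random libraries were run with three technical output replicates. In each, psi-negative yeast expressing Sup35N fused to peptides of 20 random codons were induced 24 hours with 100 μM copper sulfate and grown 7 days at 30°C on medium lacking adenine and uracil, and input and output plasmid inserts were Illumina-sequenced. The nucleation score is the DiMSum log enrichment of output over input reads, centred on the mode score of non-aggregating sequences, and sequences under 100 input reads were excluded.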
row,Substance,amyloid nucleation score
1,SVNLNFLFAL,8.056 ± 0.056
2,SVPDVVSYTKDTVVFNFGFT,3.31 ± 0.083
3,SVRVHFMVRHGLGVRLSASD,1.61 ± 0.16
4,SVRYYLLYHNFIMSSADKLS,6.485 ± 0.05
5,SVSLFMITVFNVTC,2.4 ± 0.14
6,SVVLCMNCGGCLMEIKGGGY,4.89 ± 0.096
7,SVWDGFSLRYPSLVYLRCGS,-0.634 ± 0.71
8,SVYWKYLYP,1.98 ± 0.098
9,SWCLKDMSNMLLASIRRFVL,inactive
10,SWDSLGHYNGAIE,-0.268 ± 0.54
11,SWHLDWFTYPFNKSD,inactive
12,SWSLALL,-0.278 ± 0.85
13,SWTGMNSHSLKKHLGI,-0.447 ± 0.93
14,SYAFLCNGSSRGLIIAMVLT,-0.057 ± 0.29
15,SYAYKLETNSRFMIQWKVQY,3.48 ± 0.092
16,SYCLLIDLLLHSHVGLYSPM,0.519 ± 0.33
17,SYEHVGKPCSCGYGVEI,0.735 ± 0.32
18,SYFWYCGPSDDYNKPSCSMW,-0.441 ± 0.8
19,SYGNVLVGHGV,-0.044 ± 0.61
20,SYKGFRSGKVWCFNEASYTS,1.18 ± 0.45
21,SYLFVKGLIYSLSRLCLEVN,-1.4 ± 0.7
22,SYLFVWFTSLLSDPQ,-0.716 ± 1.2
23,SYLMQSFDKLCAA,-0.033 ± 1.1
24,SYNFLRPYLLFSHPFSYDSS,0.21 ± 0.6
25,SYNMTITACSNGFPEQRDT,0.062 ± 0.73

row,Substance,amyloid nucleation score
1,SYSGTVCNRLRLVLVVDD,-0.098 ± 0.47
2,SYSKGGMSPFWWTTHRCDIM,2.09 ± 0.35
3,SYVVETQFSSHFSVLWDLMF,-1.49 ± 1.2
4,SYWCSHIIIERMLVLVHRIV,1.19 ± 0.59
5,TACPNSGNFERYGHYRSSSA,1.12 ± 0.58
6,TACRLQYSNSYLFLSSAEPV,1.28 ± 0.69
7,TAIDITTVLCIICRDPHINL,8.364 ± 0.048
8,TAKSFFRVHFSHWTRHSPSR,4.16 ± 0.14
9,TANTLRYSFCAT,-0.213 ± 0.32
10,TAQMKDFSLRRNVGFVGSRW,inactive
11,TARWAKPVADNGCVNNTFLW,2.15 ± 0.27
12,TASFY,-0.41 ± 1.6
13,TAWSSHPEV,-1.16 ± 2.4
14,TCFMNVSTQFCMSYKAQRSV,0.11 ± 0.59
15,TCFTLGRPNSLFCDCIGHKS,-0.011 ± 0.29
16,TCGLHQPFLGLFVSSSSIMT,0.175 ± 0.41
17,TCHSKSVCCLYGLCGGPEWG,6.453 ± 0.055
18,TCLADLDWSRGGGYYPHRLC,0.372 ± 1.2
19,TCLHYAVCMRSLVSQSALFV,-0.771 ± 1.7
20,TCLMRSRLACMFVRINEW,1.19 ± 0.62
21,TCLTY,-0.846 ± 2.4
22,TCNNRSSSCR,1.1 ± 0.61
23,TCRIVVGSSCFRSTVFSFLY,1.45 ± 0.68
24,TCRVEMPSCCCFSGIVGCDR,3.53 ± 0.067
25,TCSLNLYLDSDVFLCLCCLW,5.65 ± 0.074

row,Substance,amyloid nucleation score
1,TDAPP,0.126 ± 1.1
2,TDCGSTMNGGCINMCVCGHR,7.422 ± 0.069
3,TDCQRYI,1.6 ± 0.54
4,TDFPELWSNLFQPNGFRYGL,0.114 ± 0.92
5,TDGTLIGSY,0.128 ± 0.44
6,TDLKLWH,0.136 ± 1.2
7,TDSILKRYGMSFDFWRSWRN,0.76 ± 0.23
8,TEFSNAPPHTSAMVAYVLSY,-1.52 ± 1.7
9,TERFMYFKNLFVSSWTSHG,1.51 ± 0.14
10,TFAFISLDMVWLASAH,-0.051 ± 0.26
11,TFCRLISGPKIRL,-0.058 ± 0.42
12,TFGDWHKLRWRRSQPKCWSG,0.299 ± 0.36
13,TFGINRYNFRISARIGQVCI,-0.284 ± 0.22
14,TFLIFDLN,4.56 ± 0.062
15,TFRFSGYSLNISFKNCEHYV,inactive
16,TFRQVPAQFNMASRDKNSTI,inactive
17,TFSFFDRVLSLFLN,-0.179 ± 0.44
18,TFTGDKIPIYSGVTVMASGM,0.715 ± 0.84
19,TFTMSWLK,3.22 ± 0.078
20,TFTWGRMRSSSVDSCVKSWA,1.2 ± 0.37
21,TFVCIMFLDSSFSSENYGRL,1.7 ± 0.16
22,TFVSL,0.332 ± 0.49
23,TFVYVKASLSSTIAASYVAQ,1.34 ± 0.27
24,TFYVRDRAGCPW,1.33 ± 0.73
25,TGCHKS,0.915 ± 0.97

row,Substance,amyloid nucleation score
1,TGDRCWLFEGYAFKEHCFAD,2.54 ± 0.13
2,TGLSSYM,-0.701 ± 0.97
3,TGLVWYYCHSHRWNFRPCQW,0.173 ± 0.55
4,TGQACAWGGSVILTVSCDRY,2.43 ± 0.12
5,TGRSIMPLSYRTYCIDEFVS,0.004 ± 0.3
6,TGRVFLLYAAQ,-0.368 ± 0.88
7,TGVTHC,inactive
8,THNWNNSYSWSPPDALVSCK,0.263 ± 0.51
9,TIDKNNMESFITGFFGVRIL,1.3 ± 0.4
10,TILMASTSYFIPSLP,1.38 ± 0.21
11,TISKLGQPYRRNSKPL,-0.378 ± 0.41
12,TISSLNLTRLSLDIFDFQSQ,3.25 ± 0.21
13,TKCGIAYFTQICLVPDVSNS,7.04 ± 0.085
14,TKCIINEIVDDG,-1.35 ± 2.4
15,TKTSTSFGRVKPVN,0.793 ± 0.85
16,TLCFQTISPRRPQLRWTWAH,0.875 ± 0.61
17,TLCIVNIGSFVEDEKGDN,7.19 ± 0.073
18,TLFCYADMWYNLYHRIVKVR,1.52 ± 0.48
19,TLFYFMACGQLLFGKRWNWF,0.095 ± 0.58
20,TLLPIKHSCHGNWINQLYGT,-0.485 ± 0.32
21,TLMRCVFLLYYPCGYIKSDL,0.551 ± 0.31
22,TLPTKTTPSAFAVNEVTFLT,-0.573 ± 0.4
23,TLRLAREGWWEWKHVSRGEY,-0.033 ± 0.26
24,TLRVLFCRTMRRVDWSVQKV,-1.03 ± 1.7
25,TLSGSYVF,-0.567 ± 0.3

row,Substance,amyloid nucleation score
1,TLSVFREWSCLGMLLGYHNL,inactive
2,TLYCTFSTWYPLYKLQHDRY,4.55 ± 0.14
3,TMDGHLGYRSRNILLLSVFV,-0.41 ± 0.55
4,TMLMNEWGMLLNKWEWA,-0.398 ± 1.1
5,TNDEGPVRLNFNISR,-0.389 ± 0.26
6,TNIALLV,0.847 ± 0.42
7,TNRVHLWFVL,7.57 ± 0.078
8,TNRWADQTNKDAHRQTCD,-0.591 ± 1.1
9,TNYWPVIFG,0.116 ± 0.36
10,TQFEFFWVPKRHSMVHNCMN,-0.337 ± 0.31
11,TQVWTQRCPCKEASRPGLRT,-1.19 ± 2.7
12,TRAHGALYREEVKTWGSRLK,-0.998 ± 0.8
13,TRAWNGGCGALCRITFDPSC,2.6 ± 0.13
14,TRDTLIWFGRFGSMTDWCSW,0.192 ± 0.63
15,TRLGYISRDKGYSPCR,-0.146 ± 0.39
16,TRMGEL,-0.089 ± 0.76
17,TRNMHKCCNTMTTLLSVLGS,-0.186 ± 0.75
18,TRSYNWARCTLSGVALGQGQ,-0.724 ± 2.4
19,TRTAGRSVCPVIQLMSWAAY,0.277 ± 0.44
20,TRWWGPLQFVYFPD,-0.17 ± 0.68
21,TRYGECAGWSGPYIADSGSA,-0.001 ± 0.31
22,TSDRTKSVLMVYSWV,-0.576 ± 0.92
23,TSEGHSLRNEEEGSSEGRCK,0.905 ± 0.51
24,TSFWLSVKSTNPFNRRQFSD,0.436 ± 0.35
25,TSGPN,-0.882 ± 0.6

row,Substance,amyloid nucleation score
1,TSLNNGKSDFLYEARVLLEF,0.541 ± 0.35
2,TSLVVVSYMVTL,1.93 ± 0.42
3,TSLWCQLRKFNYI,-0.181 ± 0.26
4,TSMPDLGWAVSVAAQFYNFQ,5.5 ± 0.077
5,TSNYAGAISFANSNILLFFV,3.64 ± 0.14
6,TSPEVLRAIVSTSLFCCILR,-0.724 ± 2.4
7,TSPSRIMS,1.12 ± 0.35
8,TSRGSGSVWLDFFSHHGKIG,-0.218 ± 1.4
9,TSRIFRCCCNCWSHA,1.31 ± 0.11
10,TSSPSVTYLLRYRLQWTLHN,0.035 ± 0.76
11,TSTPNVWRKR,inactive
12,TSYVMPEGFAVGFKMSM,0.205 ± 0.66
13,TTCSLVSSAAWMY,-0.223 ± 0.39
14,TTFVSASSMRRYRCLSLGAC,0.659 ± 0.85
15,TTGSLVCKAAPIWFVPTPAF,-1.09 ± 0.84
16,TTWVVFFEPGAV,-0.297 ± 0.84
17,TVCYTGEVRMLRS,4.22 ± 0.068
18,TVFSSWLTQGSMYV,1.48 ± 0.44
19,TVGSIRRNHEVLWGTRILSG,-1.69 ± 2.7
20,TVLNDYWFSTHKLSIR,0.958 ± 0.48
21,TVLSRVFWQRDGFVIAQSDG,inactive
22,TVRCG,0.014 ± 0.97
23,TVRGSTRSKLSGASWQCWRA,-0.023 ± 0.21
24,TVVESRTPILVYFMGCRVTY,3.31 ± 0.11
25,TVVEVRGVEQRHGLNCTNPG,-0.05 ± 0.57

row,Substance,amyloid nucleation score
1,TVVHINHHFRGTFISMAKSR,-1.58 ± 2.1
2,TWAVSNLSRV,-1.61 ± 0.59
3,TWCCYCFLRVFFEERE,-0.298 ± 0.33
4,TWQAWVGCWQYQRMGTEL,0.256 ± 0.58
5,TWYLDFFSSPFLVGFSLSFG,0.633 ± 0.49
6,TYCRQDRWVGSKKLSCTIDC,-0.025 ± 0.23
7,TYDALRGYNYHLWSNQFTFY,4.84 ± 0.066
8,TYIPDIYG,1.1 ± 0.74
9,TYKFGYVHVDTFMTVLMHTL,-0.169 ± 0.31
10,TYPLGNSESISVRLFIQYVT,1.39 ± 0.12
11,TYRTWLYLPLQCAIYLGVSL,-0.436 ± 0.64
12,TYSLYMCADKFRNTLVNKAV,inactive
13,TYSVTFF,0.231 ± 0.4
14,TYWGC,0.186 ± 1
15,VAFYGFITKINLEIY,0.578 ± 0.4
16,VAGCNVDIDVNMSCRGDMWK,2.81 ± 0.12
17,VALDMYCFQYFQTNYYS,8.411 ± 0.045
18,VALWGQYGTSIGAIGAVFSH,-0.03 ± 0.54
19,VASGSCFFRDPKIVIMSFLW,3.34 ± 0.088
20,VAVTITYAICDTLILFIEGG,4.08 ± 0.1
21,VCDFNVNYMSLVCEIHGT,0.495 ± 0.56
22,VCELHLILM,0.425 ± 0.3
